Measured values: patent US20250320480A1, “Immunoglobulin Cleaving Enzyme” (priority 2021, published 2025)
Entries after “also recorded” stand apart in the source; their conditions may differ. Non-standard residues stand in square brackets, D forms with d. Residues, ends and D or L forms follow the SMILES beside them. *: point of attachment. Sta = CC(C)C[C@H](N)[C@@H](O)CC(=O)O; Isovaleryl = CC(C)CC(=O)*

Experiments:
IdeSork2.0 = experiment: Protease inhibitor assay; type: biochemical, Streptococcus krösus; details: IgG1 pre-incubated with inhibitor, IdeSork2.0 1:5, overnight at 37° C., SDS-PAGE
Experimental: FIG. 4. Protease inhibitor sensitivity of IdeSork2.0.
IgG1 (trastuzumab) was pre-incubated with a set of protease inhibitors (G-Biosciences) before addition of IdeSork2.0 (of SEQ ID NO: 3) (1:5), and the mixture was allowed to incubate overnight at 37° C. before analysis on SDS-PAGE.

casein = experiment: General protease activity, EnzChek protease assay; type: biochemical; details: casein substrate; FabULOUS 5 μg, FabRICATOR 10 μg, IdeSORK2.0 10 μg
Experimental: FIG. 2. General protease activity. General protease activity was measured with the EnzCHECK protease assay, using casein as a substrate.
General protease activity was determined using the EnzChek Protease Assay kit, according to manufacturer's instructions. As a positive control the general protease FabULOUS (SpeB, 5 μg) was used, and as a negative control the IgG-specific protease FabRICATOR (IdeS, 10 μg). IdeSORK2.0 was added to a total quantity of 10 μg.

human IgG = details: in particular when cleaving IgG2; cited from earlier work
IgG1 = experiment: Comparison to other IgG proteases: IgG1; type: biochemical; details: SDS-PAGE
Experimental: (§1) FIG. 10. IdeSork2.0 is having a similar activity compared to IdeS and IdeZ. To investigate if IdeSork2.0 is hydrolyzing IgG in a similar way as IdeS and IdeZ they were all incubated against IgG1 and IgG2 and analyzed on SDS-PAGE. The cleavage patterns look identical, with both IdeSork2.0 and IdeS having less activity towards IgG2.
(§2) To further look into the activity of IdeSORK2.0, its activity was compared with IdeS and IdeZ against both IgG1 and IgG2.

IgG2 = experiment: Comparison to other IgG proteases: IgG2; type: biochemical; details: SDS-PAGE
Experimental: as §1, §2

IgG in human serum = experiment: Activity of IgG hydrolases in human serum; type: biochemical; details: serum (100%), E:S 1:40, 0-4 hours at 37° C., non-reduced SDS-PAGE
Experimental: FIG. 15. Activity of IgG hydrolases in human serum. Serum (100%) was spiked with IgG hydrolases and activity was analyzed over time using non-reduced SDS-PAGE.
For serum activity assays, an E: S ratio of 1:40 (assuming 10 mg/mL IgG in serum) was used, incubating 0-4 hours at 37° C. before analysis on a non-reduced SDS-PAGE. All enzymes were supplied by Genovis AB.

[1] = molecular target: denatured and reduced IgG

Question: Which “Inhibition of IdeSork2.0 hydrolysis of IgG1 (trastuzumab)” value (from here on “Inhibition”) (IdeSork2.0) does the source give for aprotinin here?
Answer: Its value is “besides aprotinin, EDTA, and pepstatin”.

Question: Which “General protease activity (signal)” value (casein) does the source give for “FabULOUS: general protease (SpeB), positive control [reference compound]” here?
Answer: The value was “high signal”.

Question: With `CC(C)C[C@H](NC(=O)[C@@H](O)[C@H](N)Cc1ccccc1)C(=O)O` [Bestatin] as the molecule, how does the “Inhibition” value (IdeSork2.0) read?
Answer: The value was “only partly inhibitory”.

Question: For `O=C(O)CN(CCN(CC(=O)O)CC(=O)O)CC(=O)O` [EDTA], which “Inhibition” value (IdeSork2.0) is on record?
Answer: Its value is “unaffected; also recorded: besides aprotinin, EDTA, and pepstatin”.

Question: Which “Inhibition” value (IdeSork2.0) does the source give for `CC(C)CC(=O)N[C@H](C(=O)N[C@H](C(=O)N[C@@H](CC(C)C)[C@@H](O)CC(=O)N[C@@H](C)C(=O)N[C@@H](CC(C)C)[C@@H](O)CC(=O)O)C(C)C)C(C)C` [pepstatin] (Isovaleryl-VV[Sta]A[Sta]-OH) here?
Answer: Its value is “besides aprotinin, EDTA, and pepstatin”.

B1: IdeZ (protein)
chain: DDYQRNATEAYAKEVPHQITSVWTKGVTPLTPEQFRYNNEDVIHAPYLAHQGWYDITKAFDGKDNLLCGAATAGNMLHWWFDQNKTEIEAYLSKHPEKQKIIFNNQELFDLKAAIDTKDSQTNSQLFNYFRDKAFPNLSARQLGVMPDLVLDMFINGYYLNVFKTQSTDVNRPYQDKDKRGGIFDAVFTRGDQTTLLTARHDLKNKGLNDISTIIKQELTEGRALALSHTYANVSISHVINLWGADFNAEGNLEAIYVTDSDANASIGMKKYFVGINAHGHVAISAKKIEGENIGAQVLGLFTLSSGKDIWQKLS
Question: With B1 as the molecule, how does the “hydrolysis of IgG, SDS-PAGE” value (human IgG2) read?
Answer: Its value is “All enzymes were able to hydrolyze the antibodies in seemingly an identical fashion, though slightly different efficiently”.

Question: And the “hydrolysis of IgG, SDS-PAGE” value (human IgG1)?
Answer: Its value is “All enzymes were able to hydrolyze the antibodies in seemingly an identical fashion, though slightly different efficiently”.

B2: IdeZ: IgG cysteine protease produced by Streptococcus equi ssp. zooepidemicus (protein)
chain: DDYQRNATEAYAKEVPHQITSVWTKGVTPLTPEQFRYNNEDVIHAPYLAHQGWYDITKAFDGKDNLLCGAATAGNMLHWWFDQNKTEIEAYLSKHPEKQKIIFNNQELFDLKAAIDTKDSQTNSQLFNYFRDKAFPNLSARQLGVMPDLVLDMFINGYYLNVFKTQSTDVNRPYQDKDKRGGIFDAVFTRGDQTTLLTARHDLKNKGLNDISTIIKQELTEGRALALSHTYANVSISHVINLWGADFNAEGNLEAIYVTDSDANASIGMKKYFVGINAHGHVAISAKKIEGENIGAQVLGLFTLSSGKDIWQKLS
Question: For B2, which “IgG cysteine protease activity against human IgG” value (human IgG) is on record?
Answer: The value was “considerably lower than that of IdeS”.

Question: What about the “Hydrolysis of IgG1” value (IgG1) of the same molecule?
Answer: The value was “able to hydrolyze”.

Question: What about the “Hydrolysis of IgG2” value (IgG2) of the same molecule?
Answer: The value was “able to hydrolyze”.

Question: What about the “Immunoglobulin cleavage activity in the presence of human serum” value (IgG in human serum) of the same molecule?
Answer: The value was “immunoglobulin cleavage activity”.

B3: IdeSORK2.0 (protein)
chain: MSKRKLLKKIEKKDTSSVLTQKKQTKTLWADGVQVDDKDFKPSTENFGTNYLAAEYGIGKGYYDINKKFDGTDDDLCSGVVAANQLHWWLDRNKDYIEKYRQQSKDNGVTIGNTDIFELNKLHDEDQSNFFDFIKKSFGNKFLQPERLLNMYINGYGYLTSQDKAKTSQPSPSKLNFFQKVFKNNLLTDKTPINDIDEFSSQTKNALQNHKVLAVSFASIKNRGLGHVVTVWGADFDENGKVVALYVTDSDDRSKNIGNAKLGMKKLRIEVSAQDSSTIKLTGFEDKNSGGSLRHLYSLSTGEQIWKKYFEETHHHHHH
Question: Which “hydrolysis of IgG, SDS-PAGE” value (mouse IgG2a) does the source give for B3 here?
Answer: Its value is “the protease is active against mIgG2a”.

Question: And the “hydrolysis of IgG” value (IVIG)?
Answer: The value was “Incubation with polyclonal IgG (e.g. IVIG) resulted in near complete hydrolysis”.

Question: What about the “hydrolysis of IgG, SDS-PAGE” value (horse IgG) of the same molecule?
Answer: The value was “only showed activity against horse and guinea pig IgG”.

Question: And the “hydrolysis of IgG, SDS-PAGE” value (cow IgG)?
Answer: Its value is “only showed activity against horse and guinea pig IgG (no activity on cow IgG)”.

Question: What about the “hydrolysis of IgG, SDS-PAGE” value (mouse IgG2b) of the same molecule?
Answer: The value was “but not mIgG1 or mIgG2b”.

Question: What about the “percentage hydrolysis of IgG” value (IgG) of the same molecule?
Answer: The value was “A ratio of 1:40 hydrolyzes >95% of IgG in 30-60 minutes”.

Question: And the “hydrolysis of IgG, SDS-PAGE” value (porcine IgG)?
Answer: Its value is “only showed activity against horse and guinea pig IgG (no activity on porcine IgG)”.

Question: What about the “hydrolysis of IgG, SDS-PAGE” value (dog IgG) of the same molecule?
Answer: Its value is “only showed activity against horse and guinea pig IgG (no activity on dog IgG)”.

Question: And the “hydrolysis, SDS-PAGE” value (human IgA)?
Answer: Its value is “IdeSORK2.0 is not active towards IgA”.

Question: And the “hydrolysis of IgG, SDS-PAGE” value (monoclonal IgG4)?
Answer: Its value is “can also hydrolyze monoclonal IgG4”.

Question: And the “hydrolysis of IgG, SDS-PAGE” value [1]?
Answer: Its value is “IdeSORK2.0 is not active against denatured and reduced IgG”.

Question: And the “hydrolysis of IgG, SDS-PAGE” value (mouse IgG1)?
Answer: The value was “but not mIgG1 or mIgG2b”.

Question: And the “hydrolysis of IgG, SDS-PAGE” value (rat IgG)?
Answer: The value was “only showed activity against horse and guinea pig IgG (no activity on rat IgG)”.

Question: And the “hydrolysis of IgG, SDS-PAGE” value (guinea pig IgG)?
Answer: Its value is “only showed activity against horse and guinea pig IgG”.

Question: What about the “hydrolysis of IgG, SDS-PAGE” value (sheep IgG) of the same molecule?
Answer: The value was “only showed activity against horse and guinea pig IgG (no activity on sheep IgG)”.

B4: IdeS (Immunoglobulin G-degrading enzyme of S. pyogenes) (protein)
chain: DSFSANQEIRYSEVTPYHVTSVWTKGVTPPANFTQGEDVFHAPYVANQGWYDITKTFNGKDDLLCGAATAGNMLHWWFDQNKDQIKRYLEEHPEKQKINFNGEQMFDVKEAIDTKNHQLDSKLFEYFKEKAFPYLSTKHLGVFPDHVIDMFINGYRLSLTNHGPTPVKEGSKDPRGGIFDAVFTRGDQSKLLTSRHDFKEKNLKEISDLIKKELTEGKALGLSHTYANVRINHVINLWGADFDSNGNLKAIYVTDSDSNASIGMKKYFVGVNSAGKVAISAKEIKEDNIGAQVLGLFTLSTGQDSWNQTN
Question: What does the source list for B4?
Answer: hydrolysis of IgG, SDS-PAGE (human IgG2): All enzymes were able to hydrolyze the antibodies in seemingly an identical fashion, though slightly different efficiently; hydrolysis of IgG, SDS-PAGE (human IgG1): All enzymes were able to hydrolyze the antibodies in seemingly an identical fashion, though slightly different efficiently

B5: IdeS: Immunoglobulin G-degrading enzyme of S. pyogenes, IgG-specific cysteine protease (protein)
chain: DSFSANQEIRYSEVTPYHVTSVWTKGVTPPANFTQGEDVFHAPYVANQGWYDITKTFNGKDDLLCGAATAGNMLHWWFDQNKDQIKRYLEEHPEKQKINFNGEQMFDVKEAIDTKNHQLDSKLFEYFKEKAFPYLSTKHLGVFPDHVIDMFINGYRLSLTNHGPTPVKEGSKDPRGGIFDAVFTRGDQSKLLTSRHDFKEKNLKEISDLIKKELTEGKALGLSHTYANVRINHVINLWGADFDSNGNLKAIYVTDSDSNASIGMKKYFVGVNSAGKVAISAKEIKEDNIGAQVLGLFTLSTGQDSWNQTN
Question: With B5 as the molecule, how does the “General protease activity (signal)” value (casein) read?
Answer: The value was “almost no signal”.

Question: What about the “Hydrolysis of IgG1” value (IgG1) of the same molecule?
Answer: Its value is “able to hydrolyze”.

Question: What about the “Hydrolysis of IgG2” value (IgG2) of the same molecule?
Answer: The value was “able to hydrolyze; also recorded: less activity”.

Question: What about the “Immunoglobulin cleavage activity in the presence of human serum” value (IgG in human serum) of the same molecule?
Answer: The value was “immunoglobulin cleavage activity”.
